{"source": "paper PMC4280530", "about": "“Uniform Orientation of Biotinylated Nanobody as an Affinity Binder for Detection of Bacillus thuringiensis (Bt) Cry1Ac Toxin” (Toxins, 2014)", "target": "T1, Cry1F toxin (Bacillus thuringiensis, strain not …, UniProt Q03746)", "T1 construct": "Cry1F toxin of Bacillus thuringiensis, member of the Cry1 family; Commercial toxin", "T1 sequence (Q03746 whole entry)": "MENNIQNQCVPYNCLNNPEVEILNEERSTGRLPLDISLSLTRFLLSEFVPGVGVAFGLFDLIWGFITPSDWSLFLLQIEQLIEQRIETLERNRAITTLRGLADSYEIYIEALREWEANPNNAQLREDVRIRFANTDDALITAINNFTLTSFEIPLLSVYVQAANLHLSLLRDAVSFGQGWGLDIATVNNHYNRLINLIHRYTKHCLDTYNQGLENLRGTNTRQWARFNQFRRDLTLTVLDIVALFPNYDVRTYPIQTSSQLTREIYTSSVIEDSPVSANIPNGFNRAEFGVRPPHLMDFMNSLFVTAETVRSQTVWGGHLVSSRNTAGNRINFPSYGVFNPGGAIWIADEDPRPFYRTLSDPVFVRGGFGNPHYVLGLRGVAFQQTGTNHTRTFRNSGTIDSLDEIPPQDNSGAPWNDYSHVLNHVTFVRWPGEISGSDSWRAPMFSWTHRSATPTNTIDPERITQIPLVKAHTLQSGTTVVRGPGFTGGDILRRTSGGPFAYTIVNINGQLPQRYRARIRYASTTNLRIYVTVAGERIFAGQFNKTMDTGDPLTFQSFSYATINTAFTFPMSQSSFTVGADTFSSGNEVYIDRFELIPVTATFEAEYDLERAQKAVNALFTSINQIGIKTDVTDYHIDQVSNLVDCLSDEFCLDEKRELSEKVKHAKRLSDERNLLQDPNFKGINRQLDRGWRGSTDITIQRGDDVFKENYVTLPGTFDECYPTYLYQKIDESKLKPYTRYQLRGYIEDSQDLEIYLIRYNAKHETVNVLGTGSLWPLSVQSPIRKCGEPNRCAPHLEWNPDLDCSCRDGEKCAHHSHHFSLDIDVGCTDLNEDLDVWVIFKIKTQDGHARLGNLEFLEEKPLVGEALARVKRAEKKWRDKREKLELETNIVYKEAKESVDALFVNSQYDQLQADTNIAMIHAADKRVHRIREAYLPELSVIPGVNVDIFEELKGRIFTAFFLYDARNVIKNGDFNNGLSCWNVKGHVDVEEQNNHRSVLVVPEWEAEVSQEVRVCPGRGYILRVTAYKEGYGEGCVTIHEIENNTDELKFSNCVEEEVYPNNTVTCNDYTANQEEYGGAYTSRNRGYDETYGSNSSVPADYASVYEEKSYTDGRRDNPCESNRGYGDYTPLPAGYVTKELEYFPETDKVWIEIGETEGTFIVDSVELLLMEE", "assay": "ELISA", "conditions": "both partners purified"}
{"binder": "anti-Cry1Ac nanobody Nb44 (VHH, VHH from an immunised dromedary, in pMECS; HA tag is known from the detection with anti-HA tag antibody; also called Cry1Ac Nb44; source: E. coli WK6, periplasm, purified (Ni-NTA / His-Select IMAC); periplasmic extract in PE-ELISA) VHH: QVQLQESGGGSVQAGGSLRLSCATSGLTYSARITWFRQAPEKEREGVATFSTGSGSTGYADSVKGRFTISQDNAKNTLYLQMNNLKPEDTAMYYCAADTSTSWRDIVLVARYKYWGQGTQVTVSS", "values": [{"measurement": "binding result", "value": "no binding (tested: 10 μg·mL^−1)"}]}
{"binder": "anti-Cry1Ac nanobody Nb61 (VHH, VHH from an immunised dromedary, in pMECS; HA tag is known from the detection with anti-HA tag antibody; also called Cry1Ac Nb61; source: E. coli WK6, periplasm, purified (Ni-NTA / His-Select IMAC); periplasmic extract in PE-ELISA) VHH: QVQLQESGGGSVQAGGSLRLSCEASENTYNSVYMAWFRQAPEKEREGVAVLSTGGGRTYYTDSVKGRFTISRDNAKNMVYLQMNSLKPDDTAMYYCAATYTGDSYGPSLYYLTPGRYEYWGQGTQVTVSS", "values": [{"measurement": "binding result", "value": "no binding (tested: 10 μg·mL^−1)"}]}
